Values of other authors in publication PMC4773801.

Target: bee venom group III sPLA2 (Apis mellifera) (UniProt P00630)
UniProt P00630, sequence (P00630 34-167): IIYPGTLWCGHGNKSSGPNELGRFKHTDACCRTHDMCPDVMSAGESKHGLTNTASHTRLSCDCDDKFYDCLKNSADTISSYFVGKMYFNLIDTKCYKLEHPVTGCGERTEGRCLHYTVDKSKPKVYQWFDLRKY

## mannose receptor CD206 (from UniProt P22897)
  Kd: 4.79 µM
